In patent US20240002516A1 (4B TECHNOLOGIES SUZHOU, published 2024):
Substitutions are numbered along the chain they refer to. Read-outs that look alike come from different tables or passages of the source.

B1: PHD49-01 (humanized muPHD49) (antibody, human IgG4, V domains shown)
VH: QVQLVQSGAEVKKPGSSVKVSCKASGYTFSSYWMQWVRQAPGQGLEWIGAIYPGDDDTIYTQKFKGRATLTADKSTSTAYMELSSLRSEDTAVYYCARNYDYQAWFAYWGQGTLVTVSS
VL: DIQMTQSPSSLSASVGDRVTITCSASSSVSYMYWYQQKPGKAPKPWIYLTSNLASGVPSRFSGSGSGTDYTLTISSLQPEDFATYYCQQWSSNPLTFGQGTKLEIK
B2: PHD48-01 (humanized muPHD48) (antibody, human IgG4, V domains shown)
VH: QVQLVQSGAEVKKPGASVKVSCKASGYSFTTYWMHWVRQAPGQGLEWIGTIYPGNSDSSNNQKFKGRATLTADTSTSTAYMELSSLRSEDTAVYYCTRFYYEDWYFDVWGQGTMVTVSS
VL: B1 VL with Y35F, L49R, W90Y, S91H, N93Y, L95P, Q99G, L103V
B3: control antibody pAb01 (antibody, V domains shown)
VH: EVQLVESGGGLVKPGGSLRLSCAASGFTFSGVSINWVRQAPGKGLEWVSSETTSSGTIYYADSVKGRFTISRDNAKNSLYLQMNSLRAEDTAVYYCARSYYYGMDVWGQGTTVTVS
VL: DIVMTQTPLSSPVTLGQPASISCRSSQSLVHRNGNTYLSWLQQRPGQPPRLLIYKISNRFSGVPDRFSGSGAGTDFTLKISRVEAEDVGVYYCMQARQFPLTFGGGTKVEIK
B4: muPHD48 (antibody, V domains shown)
VH: EVQLQQSGTVLARPGASVKMSCKASGYSFTTYWMHWVKQRPGQGLEWIGTIYPGNSDSSNNQKFKGKAKLTAVTSASTAYMELSSLTNEDSAVYYCTRFYYEDWYFDVWGAGTTVTVSS
VL: QIVLTQSPAIMSASPGEKVTISCSASSSVSYMYWFQQKPGSSPKPWIYRTSNLASGVPARFSGSGSGTSYSLTISSMEAEDAATYYCQQYHSYPPTFGGGTKLEIK
notes: Mouse hybridoma monoclonal antibody
B5: chi-PHD48 (the chimeric antibody derived from muPHD48) (antibody, V domains shown)
VH: B4 VH
VL: B4 VL
notes: Chimeric: VH in the pCDNA3.4-hIgG4 vector and VL in the pCDNA3.4-hKappa vector (human IgG4 / human kappa constant regions)
B6: muPHD49 (antibody, V domains shown)
VH: QVQLQQSGAELARPGASVKLSCKASGYTFSSYWMQWVKQRPGQGLEWIGAIYPGDDDTIYTQKFKGKATLTADKSSSTAYMQLSSLASEDSAVYYCARNYDYQAWFAYWGQGTLVTVSA
VL: QIVLTQSPALMSASPGEKVTMTCSASSSVSYMYWYQQKPRSSPKPWIYLTSNLASGVPARFSGSGSGTSYSLTISSMEAEDAATYYCQQWSSNPLTFGAGTKLELK
notes: Mouse hybridoma monoclonal antibody; also called muPHID49
B7: muPHD50 (antibody, V domains shown)
VH: EVQLQQSGTVLARPGASVKMSCKASGYIFTSYWMHWVKQRPGQGLEWIGAIYPGDSDTNYNQKFKGKAKLTAVTSASTAYMELSSLTNEDSAVYYCTRYGNYAGYYHMDYWGQGTSVTVSS
VL: B6 VL with M32I
notes: Mouse hybridoma monoclonal antibody; also called muPHID50

Columns and labels:
[1] = molecular target: T1, extracellular domain (ECD) of human TrkA protein, N-terminal flag tag and C-terminal His tag (PHA) (human, UniProt P04629 33-423); assay: BLI (Octet Red384), antibody captured on anti-human Fc AHQ tips, antigen 100 nM
T1 construct: Made in 293-F cells and purified by IMAC; also called TrkA ECD protein; TrkA (ECD); not shown: flag tag at the N-terminus (after the signal peptide); His tag at the C-terminus
Protocol: (§1) The bio-layer interferometry (BLI) method was used to determine the affinities of the antibodies, employing Octet Red384. Briefly, anti-human Fc-coated biosensor AHQ tips (ForteBio) were put into PBS with 0.1% w/v bovine serum albumin and 0.05% Tween-20 for a minimum of 10 min in the pre-wetting plate. The purified antibodies (100 nM in PBS with 0.1% bovine serum albumin and 0.05% Tween-20 (assay buffer)) were captured on AHQ biosensors (ForteBio) at a level of about 1 nm. The loaded biosensors were washed with an assay buffer to remove any unbound protein. Then, the association rates, dissociation rates and response were measured, using an antigen of 100 nM (in PBS with 0.1% bovine serum albumin and 0.05% Tween-20).

[2] = molecular target: T2, human TrkA on CellSensor TrkA-NFAT-bla CHO-K1 cells (human, UniProt P04629 33-796); assay: cell-based or functional assay
[3] = molecular target: T2, human TrkA on CellSensor TrkA-NFAT-bla …; assay: FACS on cells expressing human TrkA (FIG. 5A)
[4] = molecular target: T2, human TrkA on CellSensor TrkA-NFAT-bla …; assay: cell-based or functional assay; remark: listed apart in the source
[5] = molecular target: T2, human TrkA on CellSensor TrkA-NFAT-bla …; assay: FACS on cells expressing human TrkA (FIG. 4A)
[6] = molecular target: T2, human TrkA on CellSensor TrkA-NFAT-bla …; assay: cell-based or functional assay; remark: listed apart in the source
[7] = molecular target: T1, extracellular domain (ECD) of human …; assay: SPR (BIAcore T200), antibody on protein G chip, PHA 0.625-20 nM injected
Protocol: The binding kinetics and affinities of the humanized antibodies were determined using a BIAcoreT200™ SPR system. Approximately 30 RU of the humanized antibody was immobilized on a protein G sensor chip and serial 2-fold dilutions of the PHA (0.625-20 nM) in 1×HBS-EP+ buffer were injected over the antibody-bound surface at a flow rate of 30 μl/min.

[8] = molecular target: T1, extracellular domain (ECD) of human …; assay: BLI (Octet Red384), as in Example 4
Protocol: as §1
Two rounds of humanizations were further performed. […] In the second round, many other variants were further constructed (including several mutations in the CDR sequences). Quickchange based site-directed mutagenesis or overlap PCR were performed to create expression plasmid of new versions of 2nd round humanized antibodies. All recombinant antibodies were expressed and purified as described in Example 1, then measured antigen binding affinity using BLI technology with the Octet Red384 instrument as mentioned above. To compare the functional activity of humanized antibodies with chimeric antibodies, NFAT assay was also performed.

[9] = molecular target: T1, extracellular domain (ECD) of human …; assay: BLI (Octet Red384), His-tagged TrkA ECD captured on Anti-Penta-HIS (HIS1K) biosensor, pAb01 as second antibody (90 s) after PHD48
Protocol: A bio-layer interferometry (BLI) method-based competition assay was performed on Octet Red384. Briefly, Anti-Penta-HIS (HIS1K) Biosensor (Fortebio) was put in PBS with 0.1% w/v bovine serum albumin and 0.05% Tween-20 (assay buffer) for a minimum of 10 min in the pre-wetting plate. The TrKA ECD protein at 100 nM in assay buffer was captured on the sensor to obtain a capture level of 0.3˜1 nm. The loaded biosensors were then equilibrated with an assay buffer for a minimum of 30s followed by binding of the first antibody for 90s. After the second equilibration, the second antibody was loaded for 90s.

[10] = molecular target: T1, extracellular domain (ECD) of human …; assay: indirect ELISA on coated PHA (human TrkA ECD, 1 ug/mL), anti-mouse IgG-HRP, OD450
Protocol: Hybridoma supernatants were initially screened with human TrkA by indirect ELISA. Briefly, purified PHA was diluted to a final concentration of 1 μg/mL in PBS buffer. 100 μL of the diluted antigen was added to each well of a 96-well plate, and incubated at 4° C. overnight. The plates were washed with PBST (PBS comprising 0.05% Tween-20, pH 7.4) for three times, then 200 μl/well of 2% bovine serum albumin (BSA) diluted in PBST was added and incubated at room temperature for 2 hours for blocking. The blocking solution was removed, and the plate was washed 3 times with 300 μl PBST. The diluted solutions of primary and secondary antibodies, along with substrate solution was prepared. 100 μl of diluted primary antibody was pipetted in each well and was incubated for 1 hour at room temperature. The content in the wells was removed and washed for 3 times with 300 μl PBST buffer. PBS was removed from the plates. 100 μl of diluted Peroxidase-AffiniPure Goat Anti-Mouse IgG was added in each well and incubated for 1 hour at 37° C. The content in the wells was removed and the wells were washed for 3 times with 300 μl PBST. 100 μl of TMB substrate solution was added to the wells. After sufficient color development, 100 μl of stop solution was added to the wells to terminate the reaction. Read the absorbance (OD: 450) of each well with a microplate reader and the data were analyzed.

[11] = molecular target: T2, human TrkA on CellSensor TrkA-NFAT-bla …; assay: FACS on CellSensor TrkA-NFAT-bla CHO-K1 cells (human TrkA), APC goat anti-mouse IgG; y axis without label
Protocol: (§2) The ELISA-positive antibody producing clones were further verified by fluorescence-activated cell sorting (FACS) using a conventional method. Briefly, CellSensor® TrkA-NFAT-bla CHO-K1 cells (cells overexpressing human TrkA) were stained with anti-TrkA antibody in U-bottom 96-well plates. The cells were resuspended to 2×10⁶ cells/ml in ice cold PBS. The diluted solutions of primary and secondary antibodies were prepared, and 100 μl of the diluted primary antibody was added in each well, and incubated for 1 hours at 4° C. in the dark. The cells were washed for 2 times by centrifugation at 2500 rpm for 3 min and resuspended in ice cold PBS. The APC Goat anti-Mouse IgG was diluted in cold PBS at the […] and then the cells were resuspended in 100 μl of this solution. The cells were washed for 2 times by centrifugation at 2500 rpm for 3 min and resuspended in 100 μl ice cold PBS. The cell suspension was stored immediately at 4° C. in the dark. The cells were analyzed on the flow cytometer as soon as possible.

[12] = molecular target: T2, human TrkA on CellSensor TrkA-NFAT-bla …; assay: FACS on CellSensor TrkA-NFAT-bla CHO-K1 cells (human TrkA), APC goat anti-mouse IgG
Protocol: as §2

T1 sequence (P04629 33-423): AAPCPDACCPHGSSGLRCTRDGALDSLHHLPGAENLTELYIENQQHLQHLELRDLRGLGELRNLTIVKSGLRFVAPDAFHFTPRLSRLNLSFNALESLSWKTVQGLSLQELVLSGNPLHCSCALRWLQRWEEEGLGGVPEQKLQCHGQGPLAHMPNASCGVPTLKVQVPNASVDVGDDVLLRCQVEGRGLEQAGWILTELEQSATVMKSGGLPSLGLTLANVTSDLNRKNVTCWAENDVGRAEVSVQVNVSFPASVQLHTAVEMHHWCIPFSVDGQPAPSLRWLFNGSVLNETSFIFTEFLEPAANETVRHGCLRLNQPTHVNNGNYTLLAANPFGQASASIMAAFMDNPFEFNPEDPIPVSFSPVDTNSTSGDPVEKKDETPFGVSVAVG
T2 sequence (P04629 33-796 limits assumed, form in doubt): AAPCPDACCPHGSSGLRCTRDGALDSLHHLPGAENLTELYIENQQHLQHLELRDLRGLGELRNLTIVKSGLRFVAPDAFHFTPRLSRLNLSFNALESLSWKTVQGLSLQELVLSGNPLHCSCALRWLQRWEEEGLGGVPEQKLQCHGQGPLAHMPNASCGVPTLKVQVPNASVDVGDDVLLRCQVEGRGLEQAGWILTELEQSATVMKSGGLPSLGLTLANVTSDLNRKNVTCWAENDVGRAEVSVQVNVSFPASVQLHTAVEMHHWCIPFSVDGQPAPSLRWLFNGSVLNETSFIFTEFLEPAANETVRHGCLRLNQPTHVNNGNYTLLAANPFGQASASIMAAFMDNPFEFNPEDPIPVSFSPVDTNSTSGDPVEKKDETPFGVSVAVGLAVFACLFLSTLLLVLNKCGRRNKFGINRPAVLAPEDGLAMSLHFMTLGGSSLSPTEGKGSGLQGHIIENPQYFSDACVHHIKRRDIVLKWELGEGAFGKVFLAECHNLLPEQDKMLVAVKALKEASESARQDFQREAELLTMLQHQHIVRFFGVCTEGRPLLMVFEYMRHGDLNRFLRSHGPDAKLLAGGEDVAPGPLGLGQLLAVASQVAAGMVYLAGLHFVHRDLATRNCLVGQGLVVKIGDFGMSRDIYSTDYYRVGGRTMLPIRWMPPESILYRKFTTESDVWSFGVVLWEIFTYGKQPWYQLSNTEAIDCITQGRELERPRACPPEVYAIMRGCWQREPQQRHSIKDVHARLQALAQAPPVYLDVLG

Row | Binder | Kd [1] [nM] | koff [1] [s⁻¹] | kon [1] [M⁻¹ s⁻¹] | Top; inhibition of NGF-induced TrkA activation in TrkA-NFAT-bla CHO-K1 reporter cells [6] [Response Ratio] | EC50 [10] [nM] | Top [10] [OD450] | Top [11] | EC50 [12] [µg/mL] | further results
1 | B1 | 4.84 | 0.00098 | 203000 |  |  |  |  |  | Top; inhibition of NGF-induced TrkA activation in TrkA-NFAT-bla CHO-K1 reporter cells [2]: 1.1 Response Ratio; EC50 [3]: ~0.198 µg/mL; IC50 in NFAT assay [4]: ~0.604 nM
2 | B2 | 3.07 | 0.000634 | 207000 | 1.02 |  |  |  |  | EC50 [5]: ~0.142 µg/mL; Kd [7]: 2.34 nM; koff [7]: 0.000524 s⁻¹; kon [7]: 224000 M⁻¹ s⁻¹; Kd [8]: 3.07 nM; koff [8]: 0.000634 s⁻¹; kon [8]: 207000 M⁻¹ s⁻¹; IC50 in NFAT antagonistic assay [4]: ~0.345 nM
3 | B3 |  |  |  |  |  |  |  |  | binding result [9]: binds
4 | B4 |  |  |  | 0.862 | 0.37 | 2.16 | 239000 | 0.341 | IC50 in NFAT antagonistic assay [4]: 0.411 nM
5 | B5 | 5.33 | 0.00114 | 214000 | 1.1 |  |  |  |  | EC50 [5]: 0.112 µg/mL; IC50; inhibition of NGF-induced TrkA activation in TrkA-NFAT-bla CHO-K1 reporter cells [6]: 1.12 nM; Kd [7]: 4.06 nM; koff [7]: 0.00069 s⁻¹; kon [7]: 170000 M⁻¹ s⁻¹; Kd [8]: 2.8 nM; koff [8]: 0.000761 s⁻¹; kon [8]: 272000 M⁻¹ s⁻¹
6 | B6 |  |  |  |  | 1.07 | 1.94 | 173000 | 0.473 | Top; inhibition of NGF-induced TrkA activation in TrkA-NFAT-bla CHO-K1 reporter cells [2]: 0.796 Response Ratio; IC50 in NFAT assay [4]: 0.404 nM
7 | B7 |  |  |  |  | 0.428 | 1.65 | 268000 | 0.326 | 
